The results in this text go back to the RNAGym collection of RNA variant scans (doi:10.1073/pnas.2313332121).

Sequences and labels used below:
B1: TPR t1 (parent)
chain: GACCAAUCUGCCCUCAGAGCUCGAGAACAUCUUCGGAUGCAGAGGAGGCAGGCUUCGGUGGCGCGAUAGCGCCAACGUCCUCAACCUCCAAUGCAUCCCACCACAUGAUGAUGCCUGAAGAGCCUUGGUUUUUUG

Variants of B1 are the subject of the series. The series can be described thus: polymerase ribozyme fitness, log enrichment relative to wild type (log ratio); higher = more active; in vitro selection for triplet polymerase activity. The method in brief:
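One round of in vitro selection, in triplicate, was applied to PCR-built, transcribed mutant libraries of each subunit of a heterodimeric triplet polymerase ribozyme. The steps were annealing with a biotinylated primer, partner subunit and triplets, incubation frozen at −7 °C, gel excision of extended constructs, streptavidin-bead capture and RT-PCR. Fitness is the logarithm, base 2, of genotype enrichment over wild-type enrichment from inverse-variance-weighted replicate averages of Illumina-sequenced inputs and outputs, keeping genotypes with ≥10 input reads and ≥1 read per output.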
For G61C U112C, the “polymerase ribozyme fitness (log ratio)” value was found to be 0.0988.
With G63A C101U the figure was -0.216.
The same measure for C20U C62G C101U G110C: -6.8; for G61U U96G U129G: -1.29; for G57U G60C G61C G113A: -4.44.
With G48U A66U C72A U96G U112C, the “polymerase ribozyme fitness (log ratio)” value is -1.61.
Take C13A U59G C89G U106C: the “polymerase ribozyme fitness (log ratio)” value was -3.02.
For A41U G127C, the “polymerase ribozyme fitness (log ratio)” value is -2.91.
Take C114A G127U: the “polymerase ribozyme fitness (log ratio)” value was -3.82.
For C28A A74C, the “polymerase ribozyme fitness (log ratio)” value was -4.96.
As to C8A U33G A37U, the “polymerase ribozyme fitness (log ratio)” value is -6.73.
The same measure for C13G U32C: -2.08.
On to C13U G63A C101U, for which the “polymerase ribozyme fitness (log ratio)” value is -0.511.
Take G48A C64G U81A C89A: the “polymerase ribozyme fitness (log ratio)” value is -7.34.
Take C3U G48U: the “polymerase ribozyme fitness (log ratio)” value is -0.574.
Consider C28G U59A C104U G113C, for which the “polymerase ribozyme fitness (log ratio)” value is -5.
Take C8A U129C: the “polymerase ribozyme fitness (log ratio)” value is -1.05.
Take A46C C115G: the “polymerase ribozyme fitness (log ratio)” value was -2.59.
Take C8G C22U G23A C123G: the “polymerase ribozyme fitness (log ratio)” value was -7.38.
On to C49G C64G G77U A83U G120U, for which the “polymerase ribozyme fitness (log ratio)” value is -7.69.
With G71A A91G the figure was -2.18; with A37C G107A C123A, -5.8.
Turning to G51U C64G U112G, the “polymerase ribozyme fitness (log ratio)” value is -6.95.
As for G39C C40U G69A, the “polymerase ribozyme fitness (log ratio)” value was -4.36.
Consider C64U U78A, for which the “polymerase ribozyme fitness (log ratio)” value is -0.358.
For C28A A50C C73A G113A, the “polymerase ribozyme fitness (log ratio)” value is -4.23.
Take A2G U7C U9C G51U: the “polymerase ribozyme fitness (log ratio)” value was -2.87.
C88A G93U G120U: the “polymerase ribozyme fitness (log ratio)” value is -3.17.
Regarding U9A C12U, the “polymerase ribozyme fitness (log ratio)” value was -0.242.
Turning to G60A C97G, the “polymerase ribozyme fitness (log ratio)” value was -4.02.
Take A37U A66C C76U: the “polymerase ribozyme fitness (log ratio)” value is -2.83.
With C101A G110U A119G, the “polymerase ribozyme fitness (log ratio)” value is -2.89.
The same measure for A27G G47C A100U: -4.85.
G44C C72G C88U C101U: the “polymerase ribozyme fitness (log ratio)” value was -2.47.
The same measure for G63A C88U A118C: -3.02; for C72U C104A: -2.05; for C62U A119G: 0.565.
Regarding G60A C73G A108U, the “polymerase ribozyme fitness (log ratio)” value is -5.92.
G48U G61U: the “polymerase ribozyme fitness (log ratio)” value turned out to be 0.43.
For the variant C13U A16G A50U A90G, the “polymerase ribozyme fitness (log ratio)” value is -0.51.
Regarding G65A A68G A121U C123G, the “polymerase ribozyme fitness (log ratio)” value was -5.3.
With U30C C56A C82U C94U G113C the figure was -5.15; with G69U C114U U130G, -1.33.
With G36A U106A the figure was -0.912; with C56A G69U A108G U112C G117A U134C, -3.02.
For G10C A24G A46C C86G, the “polymerase ribozyme fitness (log ratio)” value is -3.81.
As for C34A G45C C53A G60U, the “polymerase ribozyme fitness (log ratio)” value is -1.66.
Regarding G63A U96C, the “polymerase ribozyme fitness (log ratio)” value is -1.54.
For A16C C53A C56A G60A, the “polymerase ribozyme fitness (log ratio)” value was -4.12.
With C12A G19U C40G C89U C102A U112C C114A the figure was -2.47; with U7A C53U A74C, 0.916.
Turning to C98U U106A G110U G120C, the “polymerase ribozyme fitness (log ratio)” value was -2.16.
A83C U109C: the “polymerase ribozyme fitness (log ratio)” value is -4.51.
In the case of U38C A46G, the “polymerase ribozyme fitness (log ratio)” value was -3.03.
Consider C11U G19U U54A A121C G135U, for which the “polymerase ribozyme fitness (log ratio)” value was -2.38.
With C8U C34A G44U G61U U130G the figure was -4.49; with C62U U78G, -0.0458.
Regarding C64U A103C G117U, the “polymerase ribozyme fitness (log ratio)” value was -6.58.
With G63C C80U A118C G120A the figure was -3.34; with A83C G128C, -2.09; with U9C C15G A43U U131C, -2.2.
As to C49G G57U A119G U133G, the “polymerase ribozyme fitness (log ratio)” value is -0.101.
As to A26C G36U A41U G120U U132A, the “polymerase ribozyme fitness (log ratio)” value is -5.17.
For the variant G61A U125G, the “polymerase ribozyme fitness (log ratio)” value was -0.638.
With C62U C97U C115G the figure was -3.22.
As for C34U C70U U112A G135U, the “polymerase ribozyme fitness (log ratio)” value was -6.08.
Take A5G A18G C79A U81C C89U G93U G120C C124U: the “polymerase ribozyme fitness (log ratio)” value is -6.53.
The same measure for G47C G93A C124A G127U G135U: -2.23.
Consider U33C A121C, for which the “polymerase ribozyme fitness (log ratio)” value is -2.95.
With A24G G71U C86G the figure was -3.88; with G45A G52U U130G, -1.91; with G63U U78A A90U C94U G122U, -3.99.
For the variant A26U U78A G110U G120C U133G, the “polymerase ribozyme fitness (log ratio)” value was -7.89.
With C13G C40A, the “polymerase ribozyme fitness (log ratio)” value was -0.524.
For A26G C72U, the “polymerase ribozyme fitness (log ratio)” value is -2.13.
As for G61A U78C C80U, the “polymerase ribozyme fitness (log ratio)” value is -5.11.
Regarding C8G C94A C104U, the “polymerase ribozyme fitness (log ratio)” value stood at 0.226.
For G23U C72U, the “polymerase ribozyme fitness (log ratio)” value was -6.65.
Turning to A41G U87G U109A C115U, the “polymerase ribozyme fitness (log ratio)” value was -6.39.
G60C: the “polymerase ribozyme fitness (log ratio)” value was -0.366.
Turning to U87G, the “polymerase ribozyme fitness (log ratio)” value is 0.133.
U7G C8U G61A A90U A121C: the “polymerase ribozyme fitness (log ratio)” value came to 0.312.
On to G69U U78C, for which the “polymerase ribozyme fitness (log ratio)” value came to 0.191.
